Read-outs that look alike come from different tables or passages of the source.
B1: MH172-HGF R-7-2-92 (VHH)
VHH: QLQLVESGGGLVQAGGSLRLSCAASGRITNTYVMGWFRQAPGKERELQAAITWTVGSTYYVDSVKGRFTISRDNAKNTLYLQMNSLKPEDTAVYYCAASRFSAWPPRGTLGEWNSWGQGTQVTVSS

Legend:
[1] = biological target: Human c-MET, His Tag (Sino Biological, Cat. No. 10692-H08H) (human) (UniProt P08581); assay: ELISA, coated human c-MET His Tag, 4-parameter fit
[2] = biological target: human c-MET on Hs746T human gastric cancer cells (human) (UniProt P08581); assay: flow cytometry on Hs746T cells, 4-parameter fit
[3] = biological target: human c-MET on Hs746T human gastric cancer cells (human) (UniProt P08581); assay: cell-based or functional assay
[4] = biological target: human c-MET on Hs746T human gastric cancer cells (human) (UniProt P08581); assay: flow cytometry on Hs746T cells, PE secondary antibody, 4-parameter fit
[5] = biological target: human c-MET on Hs746T human gastric cancer cells (human) (UniProt P08581); assay: cell-based or functional assay; remark: listed apart in the source
[6] = biological target: human c-MET antigen (human) (UniProt P08581); assay: ELISA, E. coli lysate supernatant of clone on human c-MET antigen
[7] = biological target: human c-MET antigen (human) (UniProt P08581); assay: ELISA OD450 of clone supernatant divided by PBS blank

Molecule	Bottom [1] [OD450]	EC50 [1] [µg/mL]	Top [1] [OD450]	Bottom [2] [MFI]	EC50 [2] [µg/mL]	Top [2] [MFI]	Fab-ZAP endocytosis-mediated cell killing, Bottom (killing rate %) [3] [%]	Fab-ZAP endocytosis-mediated cell killing, EC50 [3] [nM]	Fab-ZAP endocytosis-mediated cell killing, Top (killing rate %) [3] [%]	Bottom [4] [MFI]	EC50 [4] [µg/mL]	Top [4] [MFI]	Fab-ZAP endocytosis-mediated cell killing, Bottom (killing rate %) [5] [%]	Fab-ZAP endocytosis-mediated cell killing, EC50 [5] [nM]	Fab-ZAP endocytosis-mediated cell killing, Top (killing rate %) [5] [%]	OD450 [6] [OD450]	Unique seq/PBS (fold over PBS) [7]
Isotype (antibody)	0.0582	4.09	0.0795	-124	9.74	722											
MHB07-PC (Telisotuzumab) (antibody)	0.0407	0.00925	2.02	610	0.788	8340	49.7	0.0199	83.2	18000	0.31	647000	15.4	0.0128	98.3		
B1																3.26	42.3

Reference: EP4763865A1
